Target: human procollagen V proα2(V) chain, produced in HEK-293 cells (human, UniProt P05997 27-1499)
Experiment: ion-exchange chromatography (DEAE-cellulose) with Western blot of the fractions; supernatant of medium of co-transfected HEK-293 cells (clone C22) after dialysis against 50 mM Tris-HCl pH 8.6; linear 0–0.6 M NaCl gradient; fractions double probed with mAb 18G5 and polyclonal antibodies to collagen V
Details: partners not purified

human procollagen V proα2(V) chain, produced in HEK-293 cells, sequence (P05997 27-1499): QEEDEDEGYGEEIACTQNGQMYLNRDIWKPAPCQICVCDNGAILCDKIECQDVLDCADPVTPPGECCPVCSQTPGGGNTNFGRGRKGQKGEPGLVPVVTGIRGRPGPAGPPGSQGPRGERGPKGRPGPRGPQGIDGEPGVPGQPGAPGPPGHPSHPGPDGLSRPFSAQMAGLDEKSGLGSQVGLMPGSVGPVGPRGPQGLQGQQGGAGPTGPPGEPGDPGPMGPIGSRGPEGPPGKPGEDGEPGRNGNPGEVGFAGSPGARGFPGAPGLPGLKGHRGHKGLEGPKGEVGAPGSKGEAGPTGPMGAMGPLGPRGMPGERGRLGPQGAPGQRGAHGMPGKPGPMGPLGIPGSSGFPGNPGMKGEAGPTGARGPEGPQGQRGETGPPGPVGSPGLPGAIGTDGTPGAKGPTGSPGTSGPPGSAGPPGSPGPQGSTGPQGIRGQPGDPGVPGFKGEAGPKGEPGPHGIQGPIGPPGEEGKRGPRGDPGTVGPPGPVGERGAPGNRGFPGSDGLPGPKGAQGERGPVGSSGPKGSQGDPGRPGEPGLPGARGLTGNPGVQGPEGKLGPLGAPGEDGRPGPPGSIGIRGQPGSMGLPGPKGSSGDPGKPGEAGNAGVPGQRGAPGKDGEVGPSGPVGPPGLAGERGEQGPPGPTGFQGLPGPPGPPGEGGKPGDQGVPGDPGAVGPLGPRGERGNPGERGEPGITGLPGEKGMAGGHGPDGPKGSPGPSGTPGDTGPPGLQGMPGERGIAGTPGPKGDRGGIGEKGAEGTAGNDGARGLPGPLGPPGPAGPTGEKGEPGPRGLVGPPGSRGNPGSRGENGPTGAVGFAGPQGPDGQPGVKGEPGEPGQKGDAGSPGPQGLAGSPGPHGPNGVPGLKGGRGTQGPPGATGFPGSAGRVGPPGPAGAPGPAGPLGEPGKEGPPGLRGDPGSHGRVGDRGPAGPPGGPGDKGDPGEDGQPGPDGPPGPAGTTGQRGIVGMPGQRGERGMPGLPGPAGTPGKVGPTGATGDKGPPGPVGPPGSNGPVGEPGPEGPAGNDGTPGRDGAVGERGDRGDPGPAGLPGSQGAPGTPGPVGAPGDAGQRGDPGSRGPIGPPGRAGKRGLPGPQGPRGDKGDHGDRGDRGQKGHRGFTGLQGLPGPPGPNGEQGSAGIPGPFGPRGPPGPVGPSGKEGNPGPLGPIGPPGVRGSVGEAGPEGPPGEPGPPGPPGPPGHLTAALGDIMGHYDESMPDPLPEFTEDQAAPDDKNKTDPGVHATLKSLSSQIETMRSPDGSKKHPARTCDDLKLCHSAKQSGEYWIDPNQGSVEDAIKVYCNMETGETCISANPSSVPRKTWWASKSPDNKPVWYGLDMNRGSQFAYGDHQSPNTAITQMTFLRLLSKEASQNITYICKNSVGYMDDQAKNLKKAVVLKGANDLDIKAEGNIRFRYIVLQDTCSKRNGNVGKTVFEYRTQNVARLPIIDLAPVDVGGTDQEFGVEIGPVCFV

stoichiometry N: ~2
B1: human procollagen V proα1(V) chain, produced in HEK-293 cells (natural protein, UniProt P20908 38-1838, looked up)
chain: QPADLLKVLDFHNLPDGITKTTGFCATRRSSKGPDVAYRVTKDAQLSAPTKQLYPASAFPEDFSILTTVKAKKGSQAFLVSIYNEQGIQQIGLELGRSPVFLYEDHTGKPGPEDYPLFRGINLSDGKWHRIALSVHKKNVTLILDCKKKTTKFLDRSDHPMIDINGIIVFGTRILDEEVFEGDIQQLLFVSDHRAAYDYCEHYSPDCDTAVPDTPQSQDPNPDEYYTEGDGEGETYYYEYPYYEDPEDLGKEPTPSKKPVEAAKETTEVPEELTPTPTEAAPMPETSEGAGKEEDVGIGDYDYVPSEDYYTPSPYDDLTYGEGEENPDQPTDPGAGAEIPTSTADTSNSSNPAPPPGEGADDLEGEFTEETIRNLDENYYDPYYDPTSSPSEIGPGMPANQDTIYEGIGGPRGEKGQKGEPAIIEPGMLIEGPPGPEGPAGLPGPPGTMGPTGQVGDPGERGPPGRPGLPGADGLPGPPGTMLMLPFRFGGGGDAGSKGPMVSAQESQAQAILQQARLALRGPAGPMGLTGRPGPVGPPGSGGLKGEPGDVGPQGPRGVQGPPGPAGKPGRRGRAGSDGARGMPGQTGPKGDRGFDGLAGLPGEKGHRGDPGPSGPPGPPGDDGERGDDGEVGPRGLPGEPGPRGLLGPKGPPGPPGPPGVTGMDGQPGPKGNVGPQGEPGPPGQQGNPGAQGLPGPQGAIGPPGEKGPLGKPGLPGMPGADGPPGHPGKEGPPGEKGGQGPPGPQGPIGYPGPRGVKGADGIRGLKGTKGEKGEDGFPGFKGDMGIKGDRGEIGPPGPRGEDGPEGPKGRGGPNGDPGPLGPPGEKGKLGVPGLPGYPGRQGPKGSIGFPGFPGANGEKGGRGTPGKPGPRGQRGPTGPRGERGPRGITGKPGPKGNSGGDGPAGPPGERGPNGPQGPTGFPGPKGPPGPPGKDGLPGHPGQRGETGFQGKTGPPGPPGVVGPQGPTGETGPMGERGHPGPPGPPGEQGLPGLAGKEGTKGDPGPAGLPGKDGPPGLRGFPGDRGLPGPVGALGLKGNEGPPGPPGPAGSPGERGPAGAAGPIGIPGRPGPQGPPGPAGEKGAPGEKGPQGPAGRDGLQGPVGLPGPAGPVGPPGEDGDKGEIGEPGQKGSKGDKGEQGPPGPTGPQGPIGQPGPSGADGEPGPRGQQGLFGQKGDEGPRGFPGPPGPVGLQGLPGPPGEKGETGDVGQMGPPGPPGPRGPSGAPGADGPQGPPGGIGNPGAVGEKGEPGEAGEPGLPGEGGPPGPKGERGEKGESGPSGAAGPPGPKGPPGDDGPKGSPGPVGFPGDPGPPGEPGPAGQDGPPGDKGDDGEPGQTGSPGPTGEPGPSGPPGKRGPPGPAGPEGRQGEKGAKGEAGLEGPPGKTGPIGPQGAPGKPGPDGLRGIPGPVGEQGLPGSPGPDGPPGPMGPPGLPGLKGDSGPKGEKGHPGLIGLIGPPGEQGEKGDRGLPGPQGSSGPKGEQGITGPSGPIGPPGPPGLPGPPGPKGAKGSSGPTGPKGEAGHPGPPGPPGPPGEVIQPLPIQASRTRRNIDASQLLDDGNGENYVDYADGMEEIFGSLNSLKLEIEQMKRPLGTQQNPARTCKDLQLCHPDFPDGEYWVDPNQGCSRDSFKVYCNFTAGGSTCVFPDKKSEGARITSWPKENPGSWFSEFKRGKLLSYVDAEGNPVGVVQMTFLRLLSASAHQNVTYHCYQSVAWQDAATGSYDKALRFLGSNDEEMSYDNNPYIRALVDGCATKKGYQKTVLEIDTPKVEQVPIVDIMFNDFGEASQKFGFEVGPACFMG

Source: paper PMC2896673 (Journal of Biomedicine and Biotechnology, 2010)
